According to publication PMC10322983, “Intramolecular interaction kinetically regulates fibril formation by human and mouse α-synuclein” (Scientific Reports, 2023):

Molecular target: the molecule itself
Assay: thioflavin T fluorescence of fibril formation; monomeric αS (50 μM in Fig. 5; 20–200 μM in Fig. 4) with 10 μM ThT, 96-well plates with Teflon polybeads, shaking at 500 rpm, 37 °C (other temperatures in Fig. 6), PBS

B1: m-αS Δ104–140 (domain or fragment)
chain: not shown
binding result: binds
